In US20060199195A1 (CEDARS SINAI MEDICAL CENTER, published 2006):

T1: full-length schwannomin isoform 1 fused to the GAL4 binding domain (pGBT9NF2, residues 1-595) (Homo sapiens (Human), UniProt P35240 1-595)
T1 construct: Yeast two-hybrid bait; also called pGPT9NF2; GAL4-NF2
T1 sequence: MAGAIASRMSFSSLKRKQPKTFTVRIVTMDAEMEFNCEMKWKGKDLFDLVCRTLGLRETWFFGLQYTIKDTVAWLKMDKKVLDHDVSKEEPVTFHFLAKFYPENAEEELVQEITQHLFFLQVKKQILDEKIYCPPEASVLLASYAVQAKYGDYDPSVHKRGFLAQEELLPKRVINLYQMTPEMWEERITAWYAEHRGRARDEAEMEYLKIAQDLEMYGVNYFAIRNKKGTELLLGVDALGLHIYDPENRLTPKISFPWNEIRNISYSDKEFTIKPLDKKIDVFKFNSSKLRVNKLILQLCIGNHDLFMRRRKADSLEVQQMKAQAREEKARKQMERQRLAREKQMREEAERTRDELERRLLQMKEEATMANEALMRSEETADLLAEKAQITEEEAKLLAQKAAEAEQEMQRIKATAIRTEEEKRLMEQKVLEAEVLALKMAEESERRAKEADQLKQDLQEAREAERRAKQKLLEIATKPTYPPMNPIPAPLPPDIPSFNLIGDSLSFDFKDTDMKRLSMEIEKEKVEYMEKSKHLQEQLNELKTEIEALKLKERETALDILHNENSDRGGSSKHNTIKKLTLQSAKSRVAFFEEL

B1: glutathione-S-transferase fusion of the C-terminal domain of schwannomin isoform 1 (GSTNF2CL, schwannomin residues 469-595) (other)
chain: KQKLLEIATKPTYPPMNPIPAPLPPDIPSFNLIGDSLSFDFKDTDMKRLSMEIEKEKVEYMEKSKHLQEQLNELKTEIEALKLKERETALDILHNENSDRGGSSKHNTIKKLTLQSAKSRVAFFEEL
notes: Expressed in E. coli DH5α, purified on Sepharose 4B-glutathione; predicted 40.0 kDa; also called isoform 1 C-terminal domain GST fusion; not shown: Glutathione-S-transferase of pGEX-5X-1 and its linker
B2: CD44 (conserved cytoplasmic domain, last 70 residues) (other, UniProt P16070 673-742, looked up, not shown: large carriers)
chain: RRRCGQKKKLVINSGNGAVEDRKPSGLNGEASKSQEMVHLVNKESSETPDQFMTADETRNLQNVDMKIGV
notes: domain: conserved cytoplasmic domain, last 70 residues; Unrelated control protein in the two-hybrid filter assay
B3: GAL4 activation domain alone (pGADGH, no insert) (other, UniProt P04386 768-881, looked up)
chain: ANFNQSGNIADSSLSFTFTNSSNGPNLITTQTNSQALSQPIASSNVHDNFMNNEITASKIDDGNNSKPLSPGWTDQTAYNAFGITTGMFNTTTMDDVYNYLFDDEDTPPNPKKE
notes: Negative control
B4: MBP fused with β-spectrin residues 1885-1967 (other, UniProt Q01082 1885-1967, looked up, not shown: large carriers)
chain: RENEVLEAWKSLLDACESRRVRLVDTGDKFRFFSMVRDLMLWMEDVIRQIEAQEKPRDVSSVELLMNNHQGIKAEIDARNDSF
B5: MBP fused with β-spectrin residues 1885-1992 (other, UniProt Q01082 1885-1992, looked up, not shown: large carriers)
chain: RENEVLEAWKSLLDACESRRVRLVDTGDKFRFFSMVRDLMLWMEDVIRQIEAQEKPRDVSSVELLMNNHQGIKAEIDARNDSFTTCIELGKSLLARKHYASEEIKEKL

Tests used:
[1] = biological target: maltose binding protein (MBP) with no fusion protein (UniProt P0AEX9 27-392 = MBP); assay: pull-down on amylose resin, Western blot with Ab5990
Experimental: (§1) Purified MBP or MBP fusions were incubated with fresh amylose resin for 5 minutes at room temperature and 2.5 minutes at 4° C. in column buffer (20 mM Tris-HCl, pH 7.4, 200 mM NaCl, 1 mM EDTA, 2 μg/ml aprotinin, 0.5 mg/ml Perfabloc SC), and washed three times with binding buffer (160 mM NaCl, 2.5 mM MgCl₂, 1.5 mM CaCl₂, […], 50 mM hepes, pH 7.4, 1% Triton X-100, 2 μg/ml aprotinin, and 0.5 mg/ml Pefabloc SC). Saturated amylose resin was incubated with equivalent amounts of GSTNF2CL or GSTNF2I2CL for 20 min at 4° C. and washed three times with binding buffer. The quantities were normalized by conducting dot blots of serial dilutions detected with anti-GST antibody (Pharmacia). Western blot analysis was conducted as described using affinity purified rabbit anti-spectrin (Sigma S1515), and anti-schwannomin (Ab5990, recognizes C-terminal domain) polyclonal antibodies (Huynh and Pulst (1996)).
(§2) Glutathione-S-transferase (GST) fusions were purified with the C-terminal domain of schwannomin isoform 1 (GSTNF2CL, schwannomin residues 469-595) or isoform 2 (GSTNF2I2CI, schwannomin residues 469-590). When the MBPSp-amylose resin was incubated with schwannomin-GST fusion proteins, the proteins eluted from the washed resin were recognized by an anti-schwannomin antibody (Ab5990). […]

[2] = biological target: T1, full-length schwannomin isoform 1 fused …; assay: yeast two-hybrid, β-galactosidase filter assay
Text: Double-transformant pGBT9NF2I2CL and pGAD10Sp is weakly positive for β-galactosidase in the filter assay; the trace blue color is not visible in the photo. Right: Histogram illustrating results of semiquantitative liquid assays for β-galactosidase activity (Poullet and Tamanio, Methods in Enzymol. 255:488-497 (1995)). Three controls are included: pGBT9NF1 and pGADGHRas, negative pGBT9NF2 and PGADGH, negative pGBT9 and pGAD105p. β-Galactosidase units=1000×[OD₄₂₀/(OD₆₀₀×times×culture volume)]. Bars show mean and standard deviation of three replicate clones from one transformation. Except for pGBT9NF2C and pGBT9NF2I2C, liquid assays for each construct were conducted at the same time, and for all constructs, the same clones were used in filter assays, and results were reproducible. FIG. 1(B) Control β-galactosidase filter assays of indicated double transformants showing high activity for a known positive interaction between NF1 and Ras (Poullet and Tamanio, (1995)), no detectable interaction between GAL4-NF2 and an unrelated protein, CD44 (conserved cytoplasmic domain, last 70 residues), and no detectable interaction between other negative controls. […]

[3] = biological target: T1, full-length schwannomin isoform 1 fused …; assay: yeast two-hybrid, liquid β-galactosidase assay, control
[4] = biological target: B1; assay: pull-down on amylose resin, Western blot
Experimental: as §1, §2

B1
binding result [1]: no binding

B2
binding result [2]: no binding

B3
binding result [3]: no binding

B4
binding result [4]: no binding

B5
binding result [4]: no binding
